Results reported in patent US8623366B2, “Methods for treating visceral pain by administering antagonist antibodies directed against calcitonin gene-related peptide” (Labrys Biologics, Inc., priority 2009, dated 2014).
Like-named read-outs stand apart in the source and are kept apart here.

Key:
TNBS treated rats = assay: Rat TNBS colitis visceral pain model, balloon distension of the colon; format: in vivo; settings: intravenous, FIG. 1A and 1B
Procedure: Colorectal distension after TNBS-induced colitis in rats is an animal model that has been used by many researchers to explore the mechanisms of visceral hypersensitivity (Gay et al, 2006, Delafoy et al, 2006, Adam et al., 2006). In this Example, the rat TNBS colitis model was used to test the effect of a function-blocking antibody for CGRP. In the model, as in the human IBS studies, the visceral pain threshold is measured by response to balloon distension of the colon.
After overnight fasting, rats were anesthetized with ketamine (80 mg/ml)/xylazine (12 mg/ml) at a dosage of 1 ml/kg. An abdominal laparotomy was performed and a TNBS solution (50 mg at 1.5 ml/kg in 30% ethanol, “TNBS treatment group”) or 30% ethanol solution (“sham group”) was injected into the proximal colon 1 cm distal from ceacum. The sham group was used as a non-colitis control. […]
The seventh day following surgery, after a second overnight fast, TNBS treated rats sustaining a weight loss of no greater than 11% were tested for visceral pain threshold with balloon distension. […] Balloon distension was halted at the threshold pressure required to elicit a stereotypical rodent visceral pain posture known as the alpha position (repeated waves of contraction of oblique musculature with inward turning of the hindpaw) and this was recorded as the visceral pain threshold.

[1] = tested on: visceral hypersensitivity (VH); settings: systemically injected; Delafoy 2006, Plourde 1997, Julia and Bueno 1997; cited from earlier work
[2] = cited from earlier work
human α-CGRP [3] = target: T1, human α-CGRP (Homo sapiens, UniProt P06881); assay: Biacore interaction analysis of Fab fragments, N-biotin α-human/cyno CGRP on chip; format: binding
T1 sequence (P06881 83-119 limits assumed): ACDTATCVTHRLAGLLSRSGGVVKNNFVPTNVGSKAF
Procedure: (§1) Interaction analysis was conducted at 25° C. and at 37° C. on a Biacore 3000™ system equipped with streptavidin-coated (SA) sensor chips (Biacore AB, Uppsala, Sweden) using standard Biacore running buffers (HBS-P or HBS-EP). N-LC-biotinylated human and rat α- and β-CGRPs were captured on individual flow cells at low levels (typically 100 response units) to provide the reaction surfaces, while an unmodified flow cell served as a reference channel. Purified Fab fragments of antibodies G1 and G2 were generated. Typically, Fabs were prepared as a two-fold serial dilution using 0.5 μM as the top concentration and injected for 1-min at 100 μl/min allowing up to two hours for the dissociation time. Surfaces were regenerated with a mixture of 50% v/v ethanol+25 mM NaOH for G1 Fab and 2:1 v/v Pierce Gentle Elution Buffer/4M NaCl for G2 Fab. […] The binding responses were double-referenced and fit globally to a simple model using BiaEvaluation v. 4.0 software. Affinities were deduced from the quotient of the kinetic rate constants (KD=koff/kon).
(§2) As such, the offrate (koff) cannot be measured accurately unless the dissociation phase is monitored for a very long time. As a general rule-of-thumb, the binding response decays at least 5% over the allowed dissociation time for the report of an accurate offrate. However, monitoring long dissociation times on the Biacore is hindered by baseline drift, which is particularly challenging when working at the low surface capacities required for kinetic analyses. In this study, the dissociation phase was followed for two hours over the α-CGRPs but only 20 mins over the β-CGRPs. As a result, the offrates for β-CGRPs cannot be resolved as accurately as those for α-CGRPs.

human β-CGRP = target: T2, human β-CGRP (Homo sapiens, UniProt P10092); assay: Biacore interaction analysis of Fab fragments, N-biotin β-human/cyno CGRP on chip; format: binding
T2 construct: and
T2 sequence (P10092 82-118 limits assumed): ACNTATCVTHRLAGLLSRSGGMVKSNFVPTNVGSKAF
Procedure: as §1, §2

rat α-CGRP = target: T3, rat α-CGRP (Rattus norvegicus, UniProt P01256); assay: Biacore interaction analysis of Fab fragments, N-biotin α-rat CGRP on chip; format: binding
T3 sequence (P01256 83-119 limits assumed): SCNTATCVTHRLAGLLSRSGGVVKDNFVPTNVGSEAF
Procedure: as §1, §2

rat β-CGRP = target: T4, rat β-CGRP (Rattus norvegicus, UniProt P10093, R105S); assay: Biacore interaction analysis of Fab fragments, N-biotin β-rat CGRP on chip; format: binding
T4 sequence (P10093 89-125 R105S limits assumed): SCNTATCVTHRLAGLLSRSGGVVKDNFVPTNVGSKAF
Procedure: as §1, §2
The results for antibody G2 are expressed in Table 2.

[4] = target: T5, human α-CGRP binding to the CGRP1-receptor (Homo sapiens, UniProt P06881); assay: Binding assay: blocking 125I-human α-CGRP from binding to CGRP1-receptor on SK-N-MC cell membranes; settings: IC50 higher than Biacore KD at equivalent temperature
T5 construct: host or cells: receptor: endogenous, membranes of SK-N-MC cells
T5 sequence (P06881 83-119 limits assumed): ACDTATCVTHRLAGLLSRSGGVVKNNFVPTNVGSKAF
Procedure: A binding assay was performed to measure the IC50 of anti-CGRP G1 antibody in blocking human α-CGRP from binding to the CGRP1-receptor. […] Incubation was terminated by filtration through a glass microfiber filter (GF/B, 1 μm) which had been blocked with 0.5% polyethylenimine. The protein-bound radioactivity was determined in a gamma counter.

α-rat CGRP = target: T6, α-rat CGRP (Rattus norvegicus, UniProt P01256); settings: Table 6 reproduced from WO2007/054809; cited from earlier work
T6 sequence (P01256 83-119 limits assumed): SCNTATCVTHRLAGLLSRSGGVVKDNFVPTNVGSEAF

human α-CGRP [5] = target: T1, human α-CGRP; settings: Table 6 reproduced from WO2007/054809; cited from earlier work
[6] = β-human/cyno CGRP, 37° C., 20 min dissociation
[7] = β-rat CGRP, 37° C., Fab, 20 min dissociation

For CGRP 8-37: a CGRP receptor antagonist, the “effect on visceral pain threshold, 4901 compared with CGRP 8-37” value (TNBS treated rats) is given as “comparable”, the “reversing visceral hypersensitivity (VH)” value [1] is given as “effective in reversing visceral hypersensitivity (VH)” and the half-life in-vivo [2] is given as “very short half-life in-vivo”.

For “G1: anti-CGRP antagonist antibody produced by expression vectors ATCC PTA-6867 and PTA-6866; VH SEQ ID NO: 1, VL SEQ ID NO: 2 [Clone G1]”, the “koff” value (human α-CGRP [3]; 25° C.) was 7.8e-06 s⁻¹, the “kon” value (human α-CGRP [3]; 25° C.) was 186000 M⁻¹ s⁻¹ and the “koff” value (human α-CGRP [3]; 37° C.) was 3.63e-05 s⁻¹. For the same molecule, the “kon” value (human α-CGRP [3]; 37° C.) was 587000 M⁻¹ s⁻¹, the “koff” value (human β-CGRP; [6]) was <6.98e-05 s⁻¹ and the “kon” value (human β-CGRP; [6]) was 451000 M⁻¹ s⁻¹. For the same molecule, the “koff” value (rat α-CGRP; 25° C.) was 6.18e-05 s⁻¹, the “kon” value (rat α-CGRP; 25° C.) was 50800 M⁻¹ s⁻¹ and the “koff” value (rat α-CGRP; 37° C.) was 0.000399 s⁻¹. The “kon” value (rat α-CGRP; 37° C.) was 155000 M⁻¹ s⁻¹, the “koff” value (rat β-CGRP; [7]) was <7.85e-05 s⁻¹ and the “kon” value (rat β-CGRP; [7]) was 516000 M⁻¹ s⁻¹. The “IC50 relative to KD observed by Biacore” value [4] was 23 fold, the “α-rat koff” value (α-rat CGRP) was 0.000399 s⁻¹ and the “α-human koff” value (human α-CGRP [5]) was 3.63e-05 s⁻¹.

B1: G2: anti-rat CGRP mouse monoclonal antibody as described in Wong H C et al. Hybridoma 12:93-106, 1993; VH SEQ ID NO: 19, VL SEQ ID NO: 20 (antibody, V domains shown)
VH: EVQLQQSGPELVKPGASVKMSCKASGYTFTSSVMHWVKQKPGQGLEWIGYINPYNDGTKYNEKFKGKATLTSDKSSSTAYMELSSLTSEDSAVYYCAKGGNDGYWGQGTTLTVSS
VL: EIVLTQSPTTMAASPGEKITITCSASSSISSIYLHWYQQKPGFSPKVLIYRASNLASGVPARFSGSGSGTSYSLTIGTMEAEDVATYYCQQGSTIPFTFGSGTKLEIK
modifications: Synthetic polypeptide, Antibody G2 heavy chain variable region; Synthetic polypeptide, Antibody G2 light chain variable region
In the case of B1, the Kd (human α-CGRP [3]; 25° C.) is reported as 19 nM, the “koff” value (human α-CGRP [3]; 25° C.) is reported as 0.00115 s⁻¹ and the “kon” value (human α-CGRP [3]; 25° C.) is reported as 60300 M⁻¹ s⁻¹. The “koff” value (human α-CGRP [3]; 37° C.) was 0.0039 s⁻¹, the “kon” value (human α-CGRP [3]; 37° C.) was 93000 M⁻¹ s⁻¹ and the Kd (human β-CGRP; β-human CGRP, 25° C.) was 20 nM. For the same molecule, the “koff” value (human β-CGRP; β-human CGRP, 25° C.) was 0.00162 s⁻¹, the “kon” value (human β-CGRP; β-human CGRP, 25° C.) was 81400 M⁻¹ s⁻¹ and the “koff” value (rat α-CGRP; 25° C.) was 0.000214 s⁻¹. The “kon” value (rat α-CGRP; 25° C.) was 231000 M⁻¹ s⁻¹, the “koff” value (rat α-CGRP; 37° C.) was 0.0017 s⁻¹ and the “kon” value (rat α-CGRP; 37° C.) was 500000 M⁻¹ s⁻¹. The “binding characteristics to β-rat CGRP” value (rat β-CGRP; reverse orientation assay format (data not shown)) was “comparable binding characteristics to α- and β-human CGRPs”.

B2: M38: G1 variant: L1 R28N T30W; HC-FW3 L99T A100V (antibody, chains of the INN, looked up, variant L:R28N L:T30W H:L99T H:A100V, V domains shown)
VH: EVQLVESGGGLVQPGGSLRLSCAASGFTFSNYWISWVRQAPGKGLEWVAEIRSESDASATHYAEAVKGRFTISRDNAKNSLYLQMNSLRAEDTAVYYCTVYFDYGLAIQNYWGQGTLVTVSS
VL: EIVLTQSPATLSLSPGERATLSCKASKNVWTYVSWYQQKPGQAPRLLIYGASNRYLGIPARFSGSGSGTDFTLTISSLEPEDFAVYYCSQSYNYPYTFGQGTKLEIK
In the case of B2, the Kd (α-rat CGRP) is listed as 284 nM and the Kd (human α-CGRP [5]) is listed as 1.36 nM.
